Drawing on article PMC9369017, this text covers median fluorescence intensity, IC50 and Kd for 5 substances.

As a reminder, the IC50 is the concentration that inhibits the measured activity by half. The term Kd denotes the concentration at which binding is half-saturated.

The target of assay [1] is SARS-CoV-2 spike protein on Ramos-S cells (SARS-CoV-2) (UniProt P0DTC2). Put plainly: flow cytometry on cells.
Assay [2] deals with hexahistidine tagged RBD WT (SARS CoV-2, isolate Wuhan-Hu-1, aa residues 319-541) (SARS-CoV-2) (UniProt P0DTC2). Put plainly: peptide or protein array.
Another assay concerns the target EflACE2-Fc-WT (human) (UniProt Q9BYF1). Put plainly: BLI. For orientation: In BLI a coated tip is dipped into the sample, and binding shifts an interference pattern.

Turning to “EflACE2-Fc-WT (from UniProt Q9BYF1 19-740) (Fc fusion)”, the median fluorescence intensity in assay [1] was determined as 19600. In assay [2], this substance registered an IC50 of 10 nM. As to “trACE2-Fc-kif (from UniProt Q9BYF1 19-615) (Fc fusion)”, the median fluorescence intensity in assay [1] came to 16400. In the assay with EflACE2-Fc-WT (human), “SARS-CoV-2 spike RBD (analyte of the BLI) (from UniProt P0DTC2) (domain or fragment)” registered a Kd of 0.7 nM.

“trACE2-Fc WT (from UniProt Q9BYF1 19-615) (Fc fusion)” had a median fluorescence intensity in assay [1] of 15500. The IC50 in assay [2] amounted to 114 nM. The matching figures for “flACE2-Fc-WT (from UniProt Q9BYF1 19-740) (Fc fusion)”: 17200 and 80 nM.
